# Test results taken from the nanobody polyreactivity screen of Harvey et al. (2022).
# Assay: yeast display, Sf9 membrane polyspecificity reagent, FACS + sequencing; frameworks hold sequencing errors
# Procedure, shortened: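 Nanobodies came from a synthetic yeast display library in Saccharomyces cerevisiae BJ5465, induced with galactose for 36–48 hours and stained for 1 hour at 4 °C with 10% biotinylated, detergent-solubilized Sf9 membrane reagent. Cells were enriched on streptavidin microbeads and then FACS-sorted, with low and high (top ~1%) gates set on anti-HA fluorescence for expression and streptavidin fluorescence for reagent binding. Each polyreactivity label reflects the gate a clone came from. Genes were amplified by colony PCR, sequenced by MiSeq 2 × 250 and filtered by CDR length.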
row,Sequence,polyreactivity (PSR sort gate)
1,QVQLVESGGGLVQAGGSLRLSCAASGFILRAYAMGWYRQAPGKERELVAAITSATSTNYADSVKGRFTISRDNAKNTVYLQMNSLKPEDTAVYYCAADGGGGEFSYDSWGQGTQVTVSS,low polyreactivity
2,QVQLVESGGGLVQAGGSLRLSCAASGMTFSKYVMGWYRQAPGKERELVAAITWSGGRTYYADSVKGRFTISRDNAKNTVYLQMNSLKPEDTAVYYCNSKLKGLGYEYDYWGQGTQVTVSS,high polyreactivity
3,QVQLVESGGGLVQAGGSLRLSCAASGRIFDYNSMGWSRPAPGKDRELVASITQRGDIPYYADSVKGRFTSSRDNAKNTVFLQMNSLNPDETAVYYGNADGVLVWVLPYVLYTGDYWGQGTQVTVSS,low polyreactivity
4,QVQLVESGGGLVQAGGSLRLSCAASGRTFIYYAMGWYRQAPGKEREFVAIISWNGTSTNYADSVKGRFTISRDKAKNTVYLQMNSLKPEDTAVYYCAASFWSDYYRYDYWGQGTQVTVSS,low polyreactivity
5,QVQLVESGGGLVQAGGSLRLSCAASGGTFYVNAMGLYRQAPGKERELVAGIRESGASTYYADSVKGRFTISRDNAKNTVYFQMNSLQPEDTAVYYCAVDGPYPAASQSEVGYDYWGQGTQVTVSS,low polyreactivity
6,QVHLVESGGGLVQAGGSLRLSCAASGITFRFNAMGLSRQAPGKEMEFVAAITYSGDSTYYADSLKVRFTISRDNAKNSVYLHLKSVKPEDTAVYYCAAEYYAISRRIFYYWGQGTQVTVSS,low polyreactivity
7,QVQLVESGGGLVQAGGSLRLSCAASGRIFQPNAMGWYRQAPGKEREFVAAISSSGGYTFYADSVKGRFTISRDNAKNTVYLQMNSLKPEDTAVYYCAKRYGYTEYFYWGQGSQVTVSS,high polyreactivity
8,QVQLVESGGGLVQAGGSLRLSCAASGIIFYGYAMGWYRQAPGKERDLVAAISSGGGTNYADSVKGRFTISRDNAKNTVYLQMNSLIPEDTAVYYCASRQYRRVKQGNYWGQGTQVTVSS,high polyreactivity
9,QVQLVESGGGLVQAGGSLRLSCAASGSTFAKYAMGWYRQAPGKERELVASIRLSGGSTYYADSVKGRFTISRDNAKNTVYLQMNSLKPEDTAVYYCNKPFPYYPDGPNGYDYWGQGTQVTVSS,low polyreactivity
10,QVQLVESGGGLVQAGGSLRLSCAASGRIFGFYALGWYRQAPGKERELVAAITVSGSSTRYADSVKGRFTISRDNAKNTVYLQMNSLKPDDTAVYYCAASVGQFRYRYKWTFGNARMYYWGQGTQVTVSS,high polyreactivity
11,QVQLVESGGGLVQAGGSLRLSCAASGYTFLPNAMGWYRQAPGKESEFVAAISYSGGRTYYADSVKGRFTISRDNAKNTVYLLMNSLKPEDTAVYYCARDRRYWAVLSDYWGQGTQVTVSS,low polyreactivity
12,QVQLVESGGGLVQAGGSLRLSCAASGGTFKRNAMGWYRQAPGKERELVAAISTSGATTYYADSVKGRFTISRDNAKNTVYLQMNSLKPEDTAVYYCNAVGDARYNYWGQGTQVTVSS,high polyreactivity
13,QVQLVESGGGLVQAGGSLRLSCAASGYTFTSNDMGWYRQAPGKERELFAAITRVGSTNYADSVKGRFTISRDNAKNTVYLQMNSLKPEDTAVYYCAADLWQRHYLVGFGIRYDYWGQGTQVTVSS,low polyreactivity
14,QVQLVESGGGLVQEGGSLRLSCAASGFISGFYGMGWYRQAPRKEREFVAAIEFIDGDTYYADSVKGRFTISRDNAKNTVYLQMNSLKPEDTAVYYCAADGSFWQFDYWGQGTQVTVSS,low polyreactivity
15,QVQLVESGGGLVQAGGSLRLTCAASGLILDGYAMGWYRQAPGKERELVAAITRSGGRTYYADSVKGRFTISRDNAKNTVYLQMNSLKPEDTAVDYCAADTYRYHLIATDDYWGQGTQVTVSS,high polyreactivity
16,QVQLVESGGGLVQAGGSLRLSCAASGITFENYAMGWYRQAPGKETELVASITRSGGNTYYADSVKGRFTISRDTAKNSVYLQMNSLKPEDTAVYDCAKDSGLNDDFIYWGQGTQVTVSS,low polyreactivity
17,QVQLVESGGGLVQAGGSLRLSCAASGLIFVSYAMGWYRPAPGKERELVAAINSRGSRTYYADSVKGRFTISRDNAKNTVYLQMNSLKPEDTAVYYCAAGVIRYGGKEEYYYWGQGTQVTVSS,high polyreactivity
